Experiment [1] addresses T1, LRP6 (Homo sapiens, UniProt O75581). Description: LRP6-mediated ^125I-DKK1 degradation in LRP6-transduced HT1080 cells. Format: cell-based. Details: plasmid pCS-Myc-hLRP6 containing the full-length human LRP6 cDNA; HA; expressed in transfected cells; host or cells: human HT1080 cells, stably transduced (pLNCX2 retroviral vector). The following applies: 5 nM, 4 hours at 37° C. The protocol: Ligand degradation was performed using the methods as described (Li, Y., J. Biol. Chem. 275: 17187-17194, 2000). Briefly, 2×10^5 cells were seeded into 12-well dishes 1 day prior to assay. Pre-warmed assay buffer (minimal Eagle's medium containing 0.6% BSA with radioligand, 0.6 ml/well) was added to cell monolayers in the absence or the presence of unlabeled 500 nM RAP or 500 nM Mesd, followed by incubation for 4 hours at 37° C. Thereafter, the medium overlying the cell monolayers was removed and proteins were precipitated by addition of BSA to 10 mg/ml and trichloroacetic acid to 20%. […] After each time point, the plates were quickly placed on ice and the assay buffer was replaced with cold stop/strip solution. ^125I-anti-HA IgG that remained on the cell surface was stripped by incubation of cell monolayers with cold stop/strip solution for a total of 20 minutes (0.75 ml for 10 minutes, twice) and counted. Cell monolayers were then solubilized with low-SDS lysis buffer and counted. […] The fraction of internalized ^125I-anti-HA IgG after each time point was calculated and plotted.
RAP is a receptor antagonist for members of the LDLR family, and is able to inhibit the binding of most known ligands of the LDLR family members. […] Cell-surface-bound Myc-tagged DKK proteins were fixed and detected by immunofluorescence staining with anti-Myc antibody. […]

Experiment [2] deals with Wnt signaling. Description: Wnt signalling TCF/LEF-Luc assay in HEK293 cells (Wnt3A conditioned medium plus Dkk1). The experiment is classed as cell-based. The following applies: Wnt3A conditioned medium plus Dkk1 protein at 10 nM. Here is the method: HEK293 cells were plated into six-well plates. For each well, […] of the TOP-[…] luciferase construct (Upstate Biotechnology) was cotransfected with 0.8 μg Mesd-expressing vector, 0.8 μg Mesd mutant-expressing vector, or empty vector. A β-galactosidase-expressing vector (Promega, Madison, Wis.) was included as an internal control for transfection efficiency. After 48 hours, cells were lysed and both luciferase and β-galactosidase activities were determined with enzyme assay kits (Promega). The luciferase activity was determined with a luminometer using the Dual Luciferase Assay system (Promega). Luciferase activity was normalized to the activity of the P-galactosidase.

Experiment [3] addresses T1, LRP6. Nature of the experiment: ^125I-DKK1 binding to LRP6-transduced HT1080 cells. The following applies: ^125I-DKK1 5 nM, 3 hours at 4° C. Also noted: plasmid pCS-Myc-hLRP6 containing the full-length human LRP6 cDNA; HA; expressed in transfected cells; host or cells: human HT1080 cells, stably transduced (pLNCX2 retroviral vector). Here is the method: Cells (2×10^5) were seeded into 12-well dishes 1 day prior to assay. Ligand-binding buffer (minimal Eagle's medium containing 0.6% BSA with a different concentration of radioligand, 0.6 ml/well) was added to cell monolayers, in the absence or the presence of 500 nM unlabeled RAP or 500 nM unlabeled Mesd, followed with incubation for 0-4 hours at 4° C. Thereafter, overlying buffer containing unbound ligand was removed, and cell monolayers were washed and lysed in low-SDS lysis buffer (62.5 mM Tris-HCl pH 6.8, 0.2% SDS, 10% v/glycerol) and counted.
RAP is a receptor antagonist for members of the LDLR family, and is able to inhibit the binding of most known ligands of the LDLR family members. […] In these experiments, Serum-free conditioned medium was harvested from HEK293 cells transiently transfected with cDNA for human Myc-DKK1 and allowed to bind to LRP6-transduced HT1080 cells (B,C) and control cells (A) in the absence (A,B) or presence (C) of 1 μM Mesd. Cell-surface-bound Myc-tagged DKK proteins were fixed and detected by immunofluorescence staining with anti-Myc antibody. […] Binding of 125I-DKK1 (5 nM) to LRP6-transduced HT1080 cells or the control cells was carried out for 3 hours at 4° C. in the absence (total) or presence of 500 nM RAP or 500 nM Mesd. […] LRP6-mediated 125I-Mesd (5 nM) degradation was carried out for 4 hours at 37° C. in the absence or presence of 500 nM RAP or 500 nM Mesd. Values are the means of triple determinations with the s.d. indicated by error bars. Bar, 10 μm.

Experiment [4] relates to ST-2 cells. Nature of the experiment: Alkaline phosphatase activity in ST-2 cells infected with DKK1 retrovirus. The following applies: increasing amounts of oligopeptide; non-transfected cells approximately 0.14 units, DKK1-infected cells about 0.02 units. Format: cell-based. The text has this:
Osteoblasts are cells which build bone. One marker for osteoblast activity is the cell surface enzyme alkaline phosphatase (AP). ST-2 cells are an osteoblast-derived cell line which provides an in vitro model system for studying osteoblast activity. […] Treatment of the transfected cells with increasing amounts of a Mesd oligopeptide having sequence

Experiment [5] concerns the target LRP5 (Homo sapiens, UniProt O75197). Nature of the experiment: ^125I-DKK1 binding to LRP5, competition by Mesd or oligopeptide (FIG. 10B). The protocol: (§1) In order to investigate the binding of Mesd polypeptide and an Mesd oligopeptide to either LRP5 or LRP6, binding assays were performed using ^125I-Mesd or ^125I-DKK1 (FIG. 10).
Experiment [6] concerns the target T1, LRP6. Nature of the experiment: ^125I-Mesd binding to LRP6, competition by Mesd or oligopeptide (FIG. 10C). Details: plasmid pCS-Myc-hLRP6 containing the full-length human LRP6 cDNA; HA; expressed in transfected cells; host or cells: human HT1080 cells, stably transduced (pLNCX2 retroviral vector). The following applies: compared with LRP5 (up to about 10-fold). The protocol: as §1

For experiment [7], the target named is T2, LRP6 on LRP6-transduced HT1080 cells (HA-tagged) (UniProt O75581 20-1613, limits assumed).
T2 construct: whole, on cells; also called mature LRP6; cell surface LRP6
Description: binding of truncated Mesd mutants to cell surface LRP6 (FIG. 3B).

The target in experiment [8] is T3, human Myc-tagged LRP5 on transiently transfected HEK293 cells (human, UniProt O75197 32-1615).
T3 construct: whole, on cells; also called mature LRP5; pcDNA3.1C-Myc-hLRP5
Nature of the experiment: competition against 125I-Mesd for LRP5 (FIG. 10A).

Experiment [9] addresses T2, LRP6 on LRP6-transduced HT1080 cells …. Description: competition against 125I-DKK1 for LRP6 (FIG. 10D).
For experiment [10], the target named is T4, human apoER2 on stably transfected LRP-null CHO cells (human, UniProt Q14114 33-963).
T4 construct: whole, on cells
T4 sequence (looked up): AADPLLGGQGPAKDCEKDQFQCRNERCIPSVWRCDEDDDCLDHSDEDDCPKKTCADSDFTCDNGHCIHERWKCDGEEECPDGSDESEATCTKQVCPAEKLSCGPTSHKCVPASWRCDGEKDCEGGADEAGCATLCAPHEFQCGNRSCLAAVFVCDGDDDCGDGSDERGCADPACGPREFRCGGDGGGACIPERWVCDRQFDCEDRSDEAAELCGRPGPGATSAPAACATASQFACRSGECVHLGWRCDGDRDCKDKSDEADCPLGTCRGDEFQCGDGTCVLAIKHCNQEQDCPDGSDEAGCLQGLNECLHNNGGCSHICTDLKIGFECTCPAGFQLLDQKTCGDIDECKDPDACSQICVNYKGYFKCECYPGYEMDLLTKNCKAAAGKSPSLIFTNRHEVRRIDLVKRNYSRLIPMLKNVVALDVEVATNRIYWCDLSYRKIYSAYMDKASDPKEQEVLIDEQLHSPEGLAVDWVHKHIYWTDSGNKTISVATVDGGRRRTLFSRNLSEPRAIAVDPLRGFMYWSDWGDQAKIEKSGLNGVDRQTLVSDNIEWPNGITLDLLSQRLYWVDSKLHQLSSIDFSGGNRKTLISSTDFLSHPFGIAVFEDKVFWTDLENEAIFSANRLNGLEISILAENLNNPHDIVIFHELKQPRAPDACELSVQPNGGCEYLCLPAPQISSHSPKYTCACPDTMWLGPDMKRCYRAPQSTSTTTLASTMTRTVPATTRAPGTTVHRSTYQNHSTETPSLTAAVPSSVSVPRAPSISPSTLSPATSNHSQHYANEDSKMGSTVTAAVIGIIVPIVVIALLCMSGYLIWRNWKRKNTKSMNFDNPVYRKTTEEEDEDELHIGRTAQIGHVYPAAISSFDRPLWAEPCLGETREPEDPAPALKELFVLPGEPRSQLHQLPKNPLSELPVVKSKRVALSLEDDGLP
Nature of the experiment: 125I-Mesd binding to stably transfected LRP-null CHO cells, 4 h at 4 C, with or without 500 nM Mesd.

Experiment [11] deals with T5, human VLDLR on stably transfected LRP-null CHO cells (human, UniProt P98155 28-873).
T5 construct: whole, on cells
Described as above.

Experiment [12] has as its target T2, LRP6 on LRP6-transduced HT1080 cells …. Nature of the experiment: Scatchard analysis of 125I-Mesd saturation binding to LRP6-transduced HT1080 cells, 3 h at 4 C. The text has this: (C) Scatchard plots of data in B. All values are the average of triple determinations with the s.d. indicated by error bars.

T2 sequence (O75581 20-1613 limits assumed): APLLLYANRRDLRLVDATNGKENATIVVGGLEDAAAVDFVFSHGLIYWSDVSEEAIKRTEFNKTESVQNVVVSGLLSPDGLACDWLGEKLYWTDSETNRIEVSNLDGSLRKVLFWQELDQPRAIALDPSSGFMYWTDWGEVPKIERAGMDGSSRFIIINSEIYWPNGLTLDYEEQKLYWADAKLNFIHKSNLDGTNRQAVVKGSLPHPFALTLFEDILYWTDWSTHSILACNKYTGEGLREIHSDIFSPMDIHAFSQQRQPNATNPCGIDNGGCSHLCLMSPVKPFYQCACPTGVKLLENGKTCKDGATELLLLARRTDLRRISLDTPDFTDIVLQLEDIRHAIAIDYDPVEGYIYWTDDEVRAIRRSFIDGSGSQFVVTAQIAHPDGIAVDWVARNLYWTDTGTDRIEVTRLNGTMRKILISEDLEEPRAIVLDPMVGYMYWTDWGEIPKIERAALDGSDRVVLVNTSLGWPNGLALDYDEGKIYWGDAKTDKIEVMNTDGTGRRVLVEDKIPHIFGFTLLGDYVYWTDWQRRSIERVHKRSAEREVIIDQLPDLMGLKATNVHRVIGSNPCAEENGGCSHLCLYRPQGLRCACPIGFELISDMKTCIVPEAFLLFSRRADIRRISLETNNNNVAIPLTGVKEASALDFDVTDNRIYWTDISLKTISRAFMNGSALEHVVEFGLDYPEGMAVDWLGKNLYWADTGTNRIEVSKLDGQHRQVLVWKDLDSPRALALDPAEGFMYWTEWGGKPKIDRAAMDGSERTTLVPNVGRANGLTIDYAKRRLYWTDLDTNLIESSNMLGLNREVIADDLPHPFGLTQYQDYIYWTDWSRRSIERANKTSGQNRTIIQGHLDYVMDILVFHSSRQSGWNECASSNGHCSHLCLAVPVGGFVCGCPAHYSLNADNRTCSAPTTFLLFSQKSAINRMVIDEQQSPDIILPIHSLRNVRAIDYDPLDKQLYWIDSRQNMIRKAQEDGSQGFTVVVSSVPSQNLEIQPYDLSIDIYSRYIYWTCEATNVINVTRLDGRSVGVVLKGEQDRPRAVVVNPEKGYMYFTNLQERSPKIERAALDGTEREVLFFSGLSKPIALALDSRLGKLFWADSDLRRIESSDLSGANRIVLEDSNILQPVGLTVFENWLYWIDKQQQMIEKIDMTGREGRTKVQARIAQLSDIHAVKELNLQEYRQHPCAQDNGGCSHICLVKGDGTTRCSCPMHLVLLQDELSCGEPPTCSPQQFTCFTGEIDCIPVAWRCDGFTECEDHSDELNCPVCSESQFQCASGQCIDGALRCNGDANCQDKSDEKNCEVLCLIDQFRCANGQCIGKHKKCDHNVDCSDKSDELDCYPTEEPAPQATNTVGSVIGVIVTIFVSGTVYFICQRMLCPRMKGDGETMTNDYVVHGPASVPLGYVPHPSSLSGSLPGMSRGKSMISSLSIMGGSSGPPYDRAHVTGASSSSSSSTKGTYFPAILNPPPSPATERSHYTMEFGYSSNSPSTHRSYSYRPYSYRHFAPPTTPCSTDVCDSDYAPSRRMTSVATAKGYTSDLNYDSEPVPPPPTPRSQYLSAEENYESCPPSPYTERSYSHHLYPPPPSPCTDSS
T1 sequence (O75581 20-1613): as the sequence (O75581 20-1613 limits assumed) above
T3 sequence (O75197 32-1615): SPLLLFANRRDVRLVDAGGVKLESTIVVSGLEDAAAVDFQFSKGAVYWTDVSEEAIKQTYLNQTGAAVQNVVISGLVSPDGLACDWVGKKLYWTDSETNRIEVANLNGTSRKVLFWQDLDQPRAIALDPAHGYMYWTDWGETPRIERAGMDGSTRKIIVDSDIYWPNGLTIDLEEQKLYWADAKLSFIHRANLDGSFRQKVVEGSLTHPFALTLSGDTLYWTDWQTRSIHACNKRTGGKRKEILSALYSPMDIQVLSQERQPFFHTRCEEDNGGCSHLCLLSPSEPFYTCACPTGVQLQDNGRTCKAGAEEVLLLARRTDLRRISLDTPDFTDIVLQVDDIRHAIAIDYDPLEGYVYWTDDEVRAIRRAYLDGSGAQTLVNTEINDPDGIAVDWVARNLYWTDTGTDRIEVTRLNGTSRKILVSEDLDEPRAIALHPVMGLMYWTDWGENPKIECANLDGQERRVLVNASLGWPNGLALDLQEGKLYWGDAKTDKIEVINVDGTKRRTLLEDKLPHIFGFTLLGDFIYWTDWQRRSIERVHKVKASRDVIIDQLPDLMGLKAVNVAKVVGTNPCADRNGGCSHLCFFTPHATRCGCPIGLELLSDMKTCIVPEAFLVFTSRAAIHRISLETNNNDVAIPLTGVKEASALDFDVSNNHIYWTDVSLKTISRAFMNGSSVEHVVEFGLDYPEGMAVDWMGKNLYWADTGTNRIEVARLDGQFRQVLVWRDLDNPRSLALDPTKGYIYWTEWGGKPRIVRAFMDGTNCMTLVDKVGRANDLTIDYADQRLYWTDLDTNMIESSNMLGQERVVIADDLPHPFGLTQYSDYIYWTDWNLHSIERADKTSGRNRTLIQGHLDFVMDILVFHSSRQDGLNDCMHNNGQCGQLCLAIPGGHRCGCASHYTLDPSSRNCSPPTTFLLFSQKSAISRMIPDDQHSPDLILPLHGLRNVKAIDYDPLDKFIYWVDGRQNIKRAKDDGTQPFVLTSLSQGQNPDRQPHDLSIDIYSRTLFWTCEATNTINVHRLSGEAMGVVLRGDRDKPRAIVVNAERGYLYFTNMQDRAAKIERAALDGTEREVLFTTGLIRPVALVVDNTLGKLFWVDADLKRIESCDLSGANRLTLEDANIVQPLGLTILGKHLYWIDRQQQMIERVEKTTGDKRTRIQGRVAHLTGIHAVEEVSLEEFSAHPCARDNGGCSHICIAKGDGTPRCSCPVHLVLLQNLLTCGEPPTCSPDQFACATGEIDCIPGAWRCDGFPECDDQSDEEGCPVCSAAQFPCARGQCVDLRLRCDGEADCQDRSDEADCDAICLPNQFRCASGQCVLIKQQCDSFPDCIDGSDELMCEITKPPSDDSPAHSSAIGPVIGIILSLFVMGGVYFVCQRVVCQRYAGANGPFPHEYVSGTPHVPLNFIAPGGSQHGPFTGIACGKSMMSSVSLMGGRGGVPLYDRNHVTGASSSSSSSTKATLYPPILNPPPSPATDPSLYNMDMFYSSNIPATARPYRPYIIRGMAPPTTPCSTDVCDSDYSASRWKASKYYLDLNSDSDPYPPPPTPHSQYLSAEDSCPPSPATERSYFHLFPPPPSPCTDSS
Sequence of LRP5 (O75197 32-1615): as above

As to “DKK1: human DKK1 protein, LRP6-specific ligand and antagonist; recombinant (R&D Systems) or Myc-tagged in conditioned medium”, the “^125I-DKK1 degradation in LRP6-expressing HT1080 cells versus control cells” value in [1] is on record as “significantly higher levels”. Moreover, the “Effect of Dkk1 on Wnt signaling (luciferase activity)” value in experiment [2] is on record as “inhibits Wnt signaling”. The “^125I-DKK1 binding in LRP6-expressing HT1080 cells versus control cells” value in experiment [3] is “significantly higher levels”.
On to “KGGGSKEKNKTKPEKAKKKEGDPKPRASKEDNRAGSR [SEQ ID NO: 20]”, for which the “Alkaline phosphatase (AP) activity” value in [4] is on record as “increasing levels of AP activity”. Besides, the “Reduction in binding of ^125I-DKK1 to LRP5” value in [5] is given as “small but significant reduction”. Also, the “Reduction of binding of ^125I-Mesd to LRP6” value in experiment [6] is given as “even greater reduction”.

B1: Mesd(12-155) (other, not shown: small tags and cut ends)
chain: RKKKDIRDYNDADMARLLEQWEKDDDIEEGDLPEHKRPSAPIDFSKLDPGKPESILKMTKKGKTLMMFVTVSGNPTEKETEEITSLWQGSLFNANYDVQRFIVGSDRAIFMLRDGSYAWEIKDFLVSQDRCAEVTLEGQMYPGK
modifications: 125I-iodinated when used as radioligand
notes: also called truncated Mesd mutant lacking both the N-terminal and C-terminal regions
Turning to B1, in [7], the binding result is “no binding”.

B2: recombinant mouse Mesd protein (wild type) (other, not shown: small tags and cut ends)
chain: ADTPGEATPPPRKKKDIRDYNDADMARLLEQWEKDDDIEEGDLPEHKRPSAPIDFSKLDPGKPESILKMTKKGKTLMMFVTVSGNPTEKETEEITSLWQGSLFNANYDVQRFIVGSDRAIFMLRDGSYAWEIKDFLVSQDRCAEVTLEGQMYPGKGGGSKEKNKTKPEKAKKKEGDRKPRASKEDNRAGSRREDL
modifications: 125I-iodinated (IODO-GEN) when used as radioligand
notes: Made in E. coli from full-length mouse Mesd cDNA; also called wild type Mesd
What is called Kd is the free concentration of one partner at which half of the binding sites on the other are occupied at equilibrium, for simple one-to-one binding. Low readings indicate higher affinity, high ones lower affinity. For B2, the “fold reduction of ^125I-Mesd binding” value in experiment [8] was roughly 10 fold. The “fold reduction of ^125I-DKK1 binding” value in experiment [9] is greater than 2 fold. Further, the binding result in experiment [10] and in [11] was “no binding (tested: 5 nM 125I-Mesd)” in each case. For the same molecule, in [12], the Kd is roughly 3.3 nM.

For the origin of these results see patent US20080227698A1, “OLIGOPEPTIDES FOR TREATMENT OF OSTEOPOROSIS AND OTHER BONE DISEASES AND METHODS THEREOF” (Washington University, priority 2005, published 2008).
